The test system of data set [1] is U-87MG human glioma cells.
Procedure: 10^6 cells of U-87MG human glioma cells (purchased from ATCC), which were verified to express the human CAPRIN-1 polypeptide, were collected in a 50-ml centrifuge tube, 100 μCi chromium-51 was added, and incubation was carried out at 37° C. for 2 hours. Thereafter, the cells were washed 3 times with RPMI medium (Gibco) containing 10% fetal bovine serum (hereafter referred to as “FBS,” Gibco) and added to a 96-well V-bottom plate in amounts of 10^3 cells/well. Further, 5×10^4 HLA-A0201+ and peptide epitope-reactive CD8+ T cells stimulated with the peptides suspended in RPMI medium containing 10% FBS were added, and culture was conducted at 37° C. in 5% CO2 for 4 hours. After the culture, the amount of chromium-51 in the culture supernatant released from the disrupted tumor cells was measured to determine the cytotoxic activity of the peptide-stimulated CD8+ T cells.
(§1) The cytotoxic activity used herein means the cytotoxic activity of the CD8+ T cells against the U-87MG cells or the JTK-LCL cells (i.e., target cells) determined according to the following equation*. Cytotoxic activity (%)=amount of chromium-51 released from U-87MG or JTK-LCL cell upon addition of CD8+ T cell/amount of chromium-51 released from target cell upon addition of 1N hydrochloric acid×100 Equation*
Data set [2] relates to human breast cancer cell line, MDA-MB-231V. Description: Flow cytometry reactivity of monoclonal antibodies with breast cancer cell surface. In kind it is cell-based. To be noted: 10^6 MDA-MB-231V cells; control with medium instead of antibody. As for the experimental part:
Subsequently, monoclonal antibodies having reactivity with the surfaces of the breast cancer cells expressing CAPRIN-1 were selected from among the above monoclonal antibodies. Specifically, 10^6 cells of human breast cancer cell line, MDA-MB-231V, were centrifuged in a 1.5-ml microcentrifuge tube, 100 μl of the hybridoma supernatants prepared above was added thereto, and the resultants were allowed to stand on ice for 1 hour. After the plate was washed with PBS, the FITC-labeled goat anti-mouse IgG antibody (Invitrogen) diluted 500-fold with PBS containing 0.1% fetal bovine serum was added, and the plate was allowed to stand on ice for 1 hour. After the plate was washed with PBS, fluorescence intensity was measured using the FACSCalibur (Becton Dickinson). Separately, as a control, the same procedure was carried out except for adding a medium instead of the antibodies. […] The sequence of the heavy-chain variable region of one of such monoclonal antibodies is shown by SEQ ID NO: 78 and that of the light-chain variable region thereof is shown by SEQ ID NO: 79.
For orientation: Flow cytometry measures light scatter and fluorescence of single cells or particles in a stream.

The subject of data set [3] is tumor of cancer-bearing dog (breast cancer). Description: Antitumor evaluation of recombinant protein in cancer-bearing dog. In kind it is in vivo. To be noted: dog with breast cancer; for tumor size: tumor about 86 mm^3 at administration, 100 μg with Freund's incomplete adjuvant, 3 times to regional lymph node. The method, then: A cancer-bearing dog (breast cancer) having a tumor on the epidermis was subjected to evaluation of the antitumor effects of the recombinant protein purified above.
The recombinant polypeptide having the amino acid sequence shown by SEQ ID NO: 6 purified in the above-described manner (100 μg, 0.5 ml) was mixed with the equivalent amount of the Freund's incomplete adjuvant (Wako Pure Chemical Industries, Ltd.) to prepare a cancer therapeutic agent. The resulting agent was administered 3 times in total to the regional lymph node in the vicinity of the tumor, as an initial-administration, and 3 days and 7 days thereafter.
Also, 100 μg of canine interleukin 12 was administered together with the agent subcutaneously.
Further, a mixture of 0.5 ml of the recombinant polypeptide having the amino acid sequence shown by SEQ ID NO: 8 and 0.5 ml of the Freund's incomplete adjuvant was administered to another dog having breast cancer 3 times in total in the same manner as described above. Also, 100 μg of canine interleukin 12 was administered together with the agent subcutaneously.

The test system of data set [4] is canine peripheral blood mononuclear cells. Description: ELISpot assay of IFNγ using peripheral blood mononuclear cells of administered dogs. In kind it is cell-based, dog. To be noted: 5×10^5 cells/well, restimulated with the administered polypeptide 24 hours, no spots before administration.
Procedure: 70% ethanol was added to a 96-well plate (MultiScreen-IP, MAIPS4510, Millipore) in amounts of 100 μl/well, the plate was allowed to stand for 5 minutes, ethanol was aspirated off, the plate was washed with sterilized water, 200 mM sodium bicarbonate (pH 8.2) was added in amounts of 300 μl/well, the plate was allowed to stand for 5 minutes, sodium bicarbonate was aspirated off, and the plate was washed. Subsequently, the anti-canine interferon γ monoclonal antibody (clone142529, MAB781, R&D) added to 200 mM sodium bicarbonate was added to the plate in amounts of 0.5 μg/well, incubation was carried out at 37° C. overnight, and the primary antibody was solid-phased. After the primary antibody in the solution was aspirated off, a blocking solution (1% BSA-5% sucrose-200 mM sodium bicarbonate, pH 8.2) was added in amounts of 300 μl/well, and incubation was carried out at 4° C. overnight to block the plate. After the blocking solution was aspirated off, RPMI medium containing 10% fetal bovine serum (Invitrogen) was added in amounts of 300 μl/well, the plate was allowed to stand for 5 minutes, and the medium was aspirated off. Thereafter, canine peripheral blood mononuclear cells suspended in RPMI medium containing 10% fetal bovine serum were added to the plate in amounts of 5×10^5 cells/well, the dog-derived polypeptide or human-derived polypeptide used for administration were added thereto in amounts of 10 μl/well, and culture was conducted at 37° C. in 5% CO2 for 24 hours to produce interferon γ from immunocytes among peripheral blood mononuclear cells. After culture was conducted, the medium was removed, and wells were washed 6 times with a wash (0.1% Tween 20-200 mM sodium bicarbonate, pH 8.2). The rabbit anti-dog polyclonal antibodies diluted 1,000-fold with the blocking solution were added to the plate in amounts of 100 μl/well and then incubated at 4° C. overnight. After the wells were washed 3 times with the wash, the HRP-labeled anti-rabbit antibodies diluted 1,000-fold with the blocking solution were added to the plate in amounts of 100 μl/well, and the reaction was allowed to proceed at 37° C. for 2 hours. After the wells were washed 3 times with the wash, a color was developed with the aid of a Konica immunostain (Konica), and the wells was washed with water to terminate the reaction. After the reaction was terminated, the membrane was dried, and the number of the developed spots was counted using the KS Elispot (Carl Zeiss).
[5] abbreviates: 10 days after the administration.
Where [6] appears, read: 30 days after the administration.

Residues, ends and D or L forms follow the SMILES beside them.

Procedure for HLA-A24+ JTK-LCL cells: Chromium-51 was incorporated into the HLA-A24+ JTK-LCL cells expressing the human CAPRIN-1 polypeptide, HLA-A24+ and peptide epitope-reactive CD8+ T cells were added, culture was conducted, and the amount of chromium-51 in the culture supernatant released from the disrupted cells was measured.
as §1

As for `CSCC[C@H](NC(=O)[C@@H](NC(=O)[C@H](CCC(N)=O)NC(=O)[C@H](CS)NC(=O)[C@H](CO)NC(=O)[C@H](Cc1ccc(O)cc1)NC(=O)[C@H](CO)NC(=O)[C@@H](N)CCCNC(=N)N)C(C)C)C(=O)N[C@@H](Cc1c[nH]cn1)C(=O)N[C@@H](CCC(=O)O)C(=O)O` [SEQ ID NO: 77] (H-RSYSCQVMHE-OH), the “cytotoxic activity of peptide-stimulated CD8+ T cells against JTK-LCL cells” value with HLA-A24+ JTK-LCL cells was “did not exhibit cytotoxicity”. In data set [1], the “cytotoxic activity of peptide-stimulated CD8+ T cells against U-87MG cells” value was “did not show cytotoxic activity”.

B1: monoclonal antibody against CAPRIN-1 having the heavy-chain variable region of SEQ ID NO: 78 and the light-chain variable region of SEQ ID NO: 79: mouse monoclonal antibody against human CAPRIN-1 … (antibody, listed as Mus musculus, V domains shown)
VH: PRASLGVSETLLCTSGFTFTDYYMSWVRQPPGKALEWLGFIRNKANGYTTEYSASVKGRFTISRDNSQSILYLQMNTLRAEDSATYYCARANWAFDYWGQGTTVTVSSK
VL: SGDRVSLSCRASQSISNYLHWYQQKSHESPRLLIKYASQSISGIPSRFSGSGSGTDFTLSINSVETEDFGMYFCQQSNSWPYTFGGGTKLEIKQ
notes: mouse monoclonal antibody against human CAPRIN-1 reacting with breast cancer cell surfaces
With B1, the “reactivity with breast cancer cell surface (fluorescence intensity, FACS)” value in data set [2] is recorded as “reacts with the cancer cell surface”.

B2: SEQ ID NO: 6: recombinant polypeptide having the amino acid sequence shown by SEQ ID NO: 6 (canine CAPRIN-1), expressed in E. coli (protein, listed as Canis familiaris)
chain: MALSQDIQKTIKKTARREQLMREEAEQKRLKTVLELQYVLDKLGDDEVRTDLKQGLNGVPILSEEELSLLDEFYKLADPERDMSLRLNEQYEHASIHLWDLLEGKEKSVCGTTYKALKEIVERVFQSNYFDSTHNHQNGLCEEEEAASAPTVEDQVAEAEPEPAEEYTEQSEVESTEYVNRQFMAETQFSSGEKEQVDEWTVETVEVVNSLQQQPQAASPSVPEPHSLTPVAQADPLVRRQRVQDLMAQMQGPYNFIQDSMLDFENQTLDPAIVSAQPMNPTQNMDMPQLVCPPVHSESRLAQPNQVPVQPEATQVPLVSSTSEGYTASQPLYQPSHATEQRPQKEPIDQIQATISLNTDQTTASSSLPAASQPQVFQAGTSKPLHSSGINVNAAPFQSMQTVFNMNAPVPPVNEPETLKQQNQYQASYNQSFSSQPHQVEQTEGCRK
B2: the tumor size in data set [3] (10 days after the initial administration) was 55 mm^3; in data set [3] (20 days after the initial administration), 30 mm^3; in data set [3] (30 days after the initial administration), 20 mm^3. Also, the “number of IFNγ spots detected in peripheral blood mononuclear cells” value was 13 spots in data set [4] (setting [5]) and 82 spots in data set [4] (setting [6]).

B3: SEQ ID NO: 8: recombinant polypeptide having the amino acid sequence shown by SEQ ID NO: 8 (canine CAPRIN-1), expressed in E. coli (protein, listed as Canis familiaris)
chain: MPSATSLSGSGSKSSGPPPPSGSSGSEAAAAAGAAGAAGAGAAAPASQHPATGTGAVQTEAMKQILGVIDKKLRNLEKKKGKLDDYQERMNKGERLNQDQLDAVSKYQEVTNNLEFAKELQRSFMALSQDIQKTIKKTARREQLMREEAEQKRLKTVLELQYVLDKLGDDEVRTDLKQGLNGVPILSEEELSLLDEFYKLADPERDMSLRLNEQYEHASIHLWDLLEGKEKSVCGTTYKALKEIVERVFQSNYFDSTHNHQNGLCEEEEAASAPTVEDQVAEAEPEPAEEYTEQSEVESTEYVNRQFMAETQFSSGEKEQVDEWTVETVEVVNSLQQQPQAASPSVPEPHSLTPVAQADPLVRRQRVQDLMAQMQGPYNFIQDSMLDFENQTLDPAIVSAQPMNPTQNMDMPQLVCPPVHSESRLAQPNQVPVQPEATQVPLVSSTSEGYTASQPLYQPSHATEQRPQKEPIDQIQATISLNTDQTTASSSLPAASQPQVFQAGTSKPLHSSGINVNAAPFQSMQTVFNMNAPVPPVNEPETLKQQNQYQASYNQSFSSQPHQVEQTDLQQEQLQTVVGTYHGSQDQPHQVTGNHQQPPQQNTGFPRSSQPYYNSRGVSRGGSRGARGLMNGYRGPANGFRGGYDGYRPSFSNTPNSGYTQSQFSAPRDYSGYQRDGYQQNFKRGSGQSGPRGAPRGRGGPPRPNRGMPQMNTQQVN
As for B3, the “tumor completely regressed, time after the initial administration” value in data set [3] (with Freund's incomplete adjuvant, 3 times, plus 100 μg canine interleukin 12 subcutaneously, tumor at administration about 123 mm^3 (SEQ ID NO: 2), about 96 mm^3 (SEQ ID NO: 8)) stood at 27 days. Also, the “number of IFNγ spots detected in peripheral blood mononuclear cells” value in data set [4] (setting [5]) was 32 spots; in data set [4] (setting [6]), 117 spots.

(Values after patent publication US9592281B2, “Method for inducing immunity with a peptide fragment from human CAPRIN-1” (Toray Industries, Inc., priority 2008, dated 2017).)
